From publication PMC3335792, “M. tuberculosis Sliding β-Clamp Does Not Interact Directly with the NAD+ -Dependent DNA Ligase” come the findings set out here.

In data set [1] the target is T1, Mtb beta-clamp, OregonGreen488-labeled (Mycobacterium tuberculosis, UniProt P9WNU1 1-402).
T1 sequence: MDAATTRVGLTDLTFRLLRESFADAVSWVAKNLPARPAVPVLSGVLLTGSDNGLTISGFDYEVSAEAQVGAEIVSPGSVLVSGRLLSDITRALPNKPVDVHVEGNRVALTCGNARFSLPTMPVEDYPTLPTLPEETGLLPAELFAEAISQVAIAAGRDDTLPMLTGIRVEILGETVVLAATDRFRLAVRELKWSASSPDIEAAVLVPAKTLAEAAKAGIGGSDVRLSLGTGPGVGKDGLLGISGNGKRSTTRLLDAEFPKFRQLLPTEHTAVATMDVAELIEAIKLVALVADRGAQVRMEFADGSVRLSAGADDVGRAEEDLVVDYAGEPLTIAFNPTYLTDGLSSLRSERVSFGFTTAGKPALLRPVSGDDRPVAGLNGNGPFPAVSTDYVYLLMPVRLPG
The experiment in a line: fluorescence intensity titration (OregonGreen-labeled protein); apparent Kd; no Mg2+; 20 mM Tris-Cl pH 7.5, 1 mM DTT, 0.2 mM EDTA, 40 mM NaCl, 22 C, 200 or 500 nM labeled clamp; ex 490 nm, em 517 nm. The note with it: protein: recombinant, tags: C-terminal 6xHis, OregonGreen488 maleimide, chain copies: 2, label: none in fluorescence assay, 32P in EMSA. (Mobility shift assays separate free from complexed probe on a gel.)

For data set [2], the target named is T1, Mtb beta-clamp, OregonGreen488-labeled. In words: fluorescence intensity titration (OregonGreen-labeled protein); apparent Kd; abstract gives 300 nM; no Mg2+; 20 mM Tris-Cl pH 7.5, 1 mM DTT, 0.2 mM EDTA, 40 mM NaCl, 22 C, 200 or 500 nM labeled clamp; ex 490 nm, em 517 nm. The note with it: protein: recombinant; tags: C-terminal 6xHis; OregonGreen488 maleimide; chain copies: 2; label: none in fluorescence assay; 32P in EMSA.

B1: blunt duplex 18/18 (dsDNA)
DNA 1: CCCATCGTATAGCAAGGG
DNA 2: CCCTTGCTATACGATGGG
Take B1: the Kd in data set [1] (blunt) was determined as 557 nM.

B2: nicked duplex (28-mer template + 18-mer + dA10) (dsDNA)
DNA 1: TTTTTTTTTTCCCTTGCTATACGATGGG
DNA 2: CCCATCGTATAGCAAGGG
DNA 3: AAAAAAAAAA
For B2, the Kd in data set [1] (nicked duplex, 18-mer and 10-mer annealed to 28-mer, blunt ends) is 530 nM.

B3: 18/28-mer primed template (mixed)
DNA 1: TTTTTTTTTTCCCTTGCTATACGATGGG
DNA 2: CCCATCGTATAGCAAGGG
With B3, in data set [2], the Kd was 326 nM.
